Experimental data taken from patent US20140087995A1 (published 2014).
Numbered stars: 1 amine (or outer) side, 2 acyl side, 3 side chain; on linkers, the order of the positions; unused ones are H or OH. Bridge positions count the residues as written; N and C are the ends. Side chains are listed from the residue outwards. Ends that are not written are not given here. * marks the point of attachment. C20 diacid = O=C(O)CCCCCCCCCCCCCCCCCCC(=O)*; γGlu = O=C(O)[C@H](CCC(=O)[*:2])N[*:1]; AEEA = NCCOCCOCC(=O)O

T1: human amylin receptor (amylin 3(a) receptor: human calcitonin receptor with RAMP-3) (human, UniProt P30988 25-474; O60896 24-148)
T1 construct: whole, on cells; also called hAmylin-R; hAmylinR
T1 sequence (looked up) 1: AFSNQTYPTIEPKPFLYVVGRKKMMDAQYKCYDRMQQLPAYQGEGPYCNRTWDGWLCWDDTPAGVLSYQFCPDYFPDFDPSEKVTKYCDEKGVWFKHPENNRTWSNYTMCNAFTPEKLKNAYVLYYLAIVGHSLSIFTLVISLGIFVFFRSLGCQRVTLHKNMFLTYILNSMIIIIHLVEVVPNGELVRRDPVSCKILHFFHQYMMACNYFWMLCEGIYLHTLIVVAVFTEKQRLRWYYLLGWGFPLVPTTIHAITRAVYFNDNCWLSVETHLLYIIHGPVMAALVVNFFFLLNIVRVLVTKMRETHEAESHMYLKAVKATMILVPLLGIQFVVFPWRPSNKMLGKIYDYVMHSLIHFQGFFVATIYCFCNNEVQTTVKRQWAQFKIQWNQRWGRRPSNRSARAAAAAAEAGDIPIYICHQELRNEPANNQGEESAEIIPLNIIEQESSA
T1 sequence (looked up) 2: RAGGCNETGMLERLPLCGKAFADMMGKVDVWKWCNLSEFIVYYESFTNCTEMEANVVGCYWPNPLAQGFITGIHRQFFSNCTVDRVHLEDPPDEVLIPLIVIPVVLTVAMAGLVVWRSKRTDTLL


Target: T1, human amylin receptor (amylin 3(a) …)
Experiment: SPA displacement of 125I-rat amylin, hAmylin 3(a) receptor membranes
How it was run: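 Cell membranes were prepared by homogenisation in Na-HEPES/EDTA buffer, pH 7.4, and stored at −80° C. They were then coupled to SPA beads at 35 ng/μL final and exposed to compounds in assay buffer containing CaCl2, MgCl₂, OA and Tween20. After 120 min at 25° C, plates were counted and IC₅₀ derived.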

Binder	IC50 [pM]
K([AEEA-γGlu-C20 diacid])CNTATCATQRLANFLRHSSPNFGAIPSSTNVGPNTY-NH2 (disulfide 2-7; N-terminus assumed; SMILES CC[C@H](C)[C@H](NC(=O)[C@H](C)NC(=O)CNC(=O)[C@H](Cc1ccccc1)NC(=O)[C@H](CC(N)=O)NC(=O)[C@@H]1CCCN1C(=O)[C@H](CO)NC(=O)[C@H](CO)NC(=O)[C@H](Cc1c[nH]cn1)NC(=O)[C@H](CCCNC(=N)N)NC(=O)[C@H](CC(C)C)NC(=O)[C@H](Cc1ccccc1)NC(=O)[C@H](CC(N)=O)NC(=O)[C@H](C)NC(=O)[C@H](CC(C)C)NC(=O)[C@H](CCCNC(=N)N)NC(=O)[C@H](CCC(N)=O)NC(=O)[C@@H](NC(=O)[C@H](C)NC(=O)[C@@H]1CSSC[C@H](NC(=O)[C@@H](N)CCCCNC(=O)COCCOCCNC(=O)CC[C@H](NC(=O)CCCCCCCCCCCCCCCCCCC(=O)O)C(=O)O)C(=O)N[C@@H](CC(N)=O)C(=O)N[C@@H]([C@@H](C)O)C(=O)N[C@@H](C)C(=O)N[C@@H]([C@@H](C)O)C(=O)N1)[C@@H](C)O)C(=O)N1CCC[C@H]1C(=O)N[C@@H](CO)C(=O)N[C@@H](CO)C(=O)N[C@H](C(=O)N[C@@H](CC(N)=O)C(=O)N[C@H](C(=O)NCC(=O)N1CCC[C@H]1C(=O)N[C@@H](CC(N)=O)C(=O)N[C@H](C(=O)N[C@@H](Cc1ccc(O)cc1)C(N)=O)[C@@H](C)O)C(C)C)[C@@H](C)O, also called 50; compound 50)	38
K([AEEA-γGlu-C20 diacid])CNTATCATQRLAGFLRHSSPNFGAIPSSTPVGSNTY-NH2 (disulfide 2-7; N-terminus assumed; SMILES CC[C@H](C)[C@H](NC(=O)[C@H](C)NC(=O)CNC(=O)[C@H](Cc1ccccc1)NC(=O)[C@H](CC(N)=O)NC(=O)[C@@H]1CCCN1C(=O)[C@H](CO)NC(=O)[C@H](CO)NC(=O)[C@H](Cc1c[nH]cn1)NC(=O)[C@H](CCCNC(=N)N)NC(=O)[C@H](CC(C)C)NC(=O)[C@H](Cc1ccccc1)NC(=O)CNC(=O)[C@H](C)NC(=O)[C@H](CC(C)C)NC(=O)[C@H](CCCNC(=N)N)NC(=O)[C@H](CCC(N)=O)NC(=O)[C@@H](NC(=O)[C@H](C)NC(=O)[C@@H]1CSSC[C@H](NC(=O)[C@@H](N)CCCCNC(=O)COCCOCCNC(=O)CC[C@H](NC(=O)CCCCCCCCCCCCCCCCCCC(=O)O)C(=O)O)C(=O)N[C@@H](CC(N)=O)C(=O)N[C@@H]([C@@H](C)O)C(=O)N[C@@H](C)C(=O)N[C@@H]([C@@H](C)O)C(=O)N1)[C@@H](C)O)C(=O)N1CCC[C@H]1C(=O)N[C@@H](CO)C(=O)N[C@@H](CO)C(=O)N[C@H](C(=O)N1CCC[C@H]1C(=O)N[C@H](C(=O)NCC(=O)N[C@@H](CO)C(=O)N[C@@H](CC(N)=O)C(=O)N[C@H](C(=O)N[C@@H](Cc1ccc(O)cc1)C(N)=O)[C@@H](C)O)C(C)C)[C@@H](C)O, also called 71; compound 71)	48
K([AEEA-γGlu-C20 diacid])CNTATCATQRLAHFLRHSSPNFGAIPSSTNVGRNTY-NH2 (disulfide 2-7; N-terminus assumed; SMILES CC[C@H](C)[C@H](NC(=O)[C@H](C)NC(=O)CNC(=O)[C@H](Cc1ccccc1)NC(=O)[C@H](CC(N)=O)NC(=O)[C@@H]1CCCN1C(=O)[C@H](CO)NC(=O)[C@H](CO)NC(=O)[C@H](Cc1c[nH]cn1)NC(=O)[C@H](CCCNC(=N)N)NC(=O)[C@H](CC(C)C)NC(=O)[C@H](Cc1ccccc1)NC(=O)[C@H](Cc1c[nH]cn1)NC(=O)[C@H](C)NC(=O)[C@H](CC(C)C)NC(=O)[C@H](CCCNC(=N)N)NC(=O)[C@H](CCC(N)=O)NC(=O)[C@@H](NC(=O)[C@H](C)NC(=O)[C@@H]1CSSC[C@H](NC(=O)[C@@H](N)CCCCNC(=O)COCCOCCNC(=O)CC[C@H](NC(=O)CCCCCCCCCCCCCCCCCCC(=O)O)C(=O)O)C(=O)N[C@@H](CC(N)=O)C(=O)N[C@@H]([C@@H](C)O)C(=O)N[C@@H](C)C(=O)N[C@@H]([C@@H](C)O)C(=O)N1)[C@@H](C)O)C(=O)N1CCC[C@H]1C(=O)N[C@@H](CO)C(=O)N[C@@H](CO)C(=O)N[C@H](C(=O)N[C@@H](CC(N)=O)C(=O)N[C@H](C(=O)NCC(=O)N[C@@H](CCCNC(=N)N)C(=O)N[C@@H](CC(N)=O)C(=O)N[C@H](C(=O)N[C@@H](Cc1ccc(O)cc1)C(N)=O)[C@@H](C)O)C(C)C)[C@@H](C)O, also called 84; compound 84)	743

Results, then the binder that gave them:

IC50 [pM]	Binder
122	K([AEEA-γGlu-C20 diacid])CNTATCATQRLAHFLRHSSPNFGAIPSSTPVGSNTY-NH2 (disulfide 2-7; N-terminus assumed; SMILES CC[C@H](C)[C@H](NC(=O)[C@H](C)NC(=O)CNC(=O)[C@H](Cc1ccccc1)NC(=O)[C@H](CC(N)=O)NC(=O)[C@@H]1CCCN1C(=O)[C@H](CO)NC(=O)[C@H](CO)NC(=O)[C@H](Cc1c[nH]cn1)NC(=O)[C@H](CCCNC(=N)N)NC(=O)[C@H](CC(C)C)NC(=O)[C@H](Cc1ccccc1)NC(=O)[C@H](Cc1c[nH]cn1)NC(=O)[C@H](C)NC(=O)[C@H](CC(C)C)NC(=O)[C@H](CCCNC(=N)N)NC(=O)[C@H](CCC(N)=O)NC(=O)[C@@H](NC(=O)[C@H](C)NC(=O)[C@@H]1CSSC[C@H](NC(=O)[C@@H](N)CCCCNC(=O)COCCOCCNC(=O)CC[C@H](NC(=O)CCCCCCCCCCCCCCCCCCC(=O)O)C(=O)O)C(=O)N[C@@H](CC(N)=O)C(=O)N[C@@H]([C@@H](C)O)C(=O)N[C@@H](C)C(=O)N[C@@H]([C@@H](C)O)C(=O)N1)[C@@H](C)O)C(=O)N1CCC[C@H]1C(=O)N[C@@H](CO)C(=O)N[C@@H](CO)C(=O)N[C@H](C(=O)N1CCC[C@H]1C(=O)N[C@H](C(=O)NCC(=O)N[C@@H](CO)C(=O)N[C@@H](CC(N)=O)C(=O)N[C@H](C(=O)N[C@@H](Cc1ccc(O)cc1)C(N)=O)[C@@H](C)O)C(C)C)[C@@H](C)O, also called 61; compound 61)
290	K([AEEA-γGlu-C20 diacid])CNTATCATQRLAHFLRHSSPNFGAIPSSTNVGHNTY-NH2 (disulfide 2-7; N-terminus assumed; SMILES CC[C@H](C)[C@H](NC(=O)[C@H](C)NC(=O)CNC(=O)[C@H](Cc1ccccc1)NC(=O)[C@H](CC(N)=O)NC(=O)[C@@H]1CCCN1C(=O)[C@H](CO)NC(=O)[C@H](CO)NC(=O)[C@H](Cc1c[nH]cn1)NC(=O)[C@H](CCCNC(=N)N)NC(=O)[C@H](CC(C)C)NC(=O)[C@H](Cc1ccccc1)NC(=O)[C@H](Cc1c[nH]cn1)NC(=O)[C@H](C)NC(=O)[C@H](CC(C)C)NC(=O)[C@H](CCCNC(=N)N)NC(=O)[C@H](CCC(N)=O)NC(=O)[C@@H](NC(=O)[C@H](C)NC(=O)[C@@H]1CSSC[C@H](NC(=O)[C@@H](N)CCCCNC(=O)COCCOCCNC(=O)CC[C@H](NC(=O)CCCCCCCCCCCCCCCCCCC(=O)O)C(=O)O)C(=O)N[C@@H](CC(N)=O)C(=O)N[C@@H]([C@@H](C)O)C(=O)N[C@@H](C)C(=O)N[C@@H]([C@@H](C)O)C(=O)N1)[C@@H](C)O)C(=O)N1CCC[C@H]1C(=O)N[C@@H](CO)C(=O)N[C@@H](CO)C(=O)N[C@H](C(=O)N[C@@H](CC(N)=O)C(=O)N[C@H](C(=O)NCC(=O)N[C@@H](Cc1c[nH]cn1)C(=O)N[C@@H](CC(N)=O)C(=O)N[C@H](C(=O)N[C@@H](Cc1ccc(O)cc1)C(N)=O)[C@@H](C)O)C(C)C)[C@@H](C)O, also called 80; compound 80)
88	K([AEEA-γGlu-C20 diacid])CNTATCATQRLAHFLRHSSPNFGAIPSSTNVGPNTY-NH2 (disulfide 2-7; N-terminus assumed; SMILES CC[C@H](C)[C@H](NC(=O)[C@H](C)NC(=O)CNC(=O)[C@H](Cc1ccccc1)NC(=O)[C@H](CC(N)=O)NC(=O)[C@@H]1CCCN1C(=O)[C@H](CO)NC(=O)[C@H](CO)NC(=O)[C@H](Cc1c[nH]cn1)NC(=O)[C@H](CCCNC(=N)N)NC(=O)[C@H](CC(C)C)NC(=O)[C@H](Cc1ccccc1)NC(=O)[C@H](Cc1c[nH]cn1)NC(=O)[C@H](C)NC(=O)[C@H](CC(C)C)NC(=O)[C@H](CCCNC(=N)N)NC(=O)[C@H](CCC(N)=O)NC(=O)[C@@H](NC(=O)[C@H](C)NC(=O)[C@@H]1CSSC[C@H](NC(=O)[C@@H](N)CCCCNC(=O)COCCOCCNC(=O)CC[C@H](NC(=O)CCCCCCCCCCCCCCCCCCC(=O)O)C(=O)O)C(=O)N[C@@H](CC(N)=O)C(=O)N[C@@H]([C@@H](C)O)C(=O)N[C@@H](C)C(=O)N[C@@H]([C@@H](C)O)C(=O)N1)[C@@H](C)O)C(=O)N1CCC[C@H]1C(=O)N[C@@H](CO)C(=O)N[C@@H](CO)C(=O)N[C@H](C(=O)N[C@@H](CC(N)=O)C(=O)N[C@H](C(=O)NCC(=O)N1CCC[C@H]1C(=O)N[C@@H](CC(N)=O)C(=O)N[C@H](C(=O)N[C@@H](Cc1ccc(O)cc1)C(N)=O)[C@@H](C)O)C(C)C)[C@@H](C)O, also called 68; compound 68)
